Experimental data taken from patent US20220362394A1 (SUTRO BIOPHARMA, published 2022).
Positions count from the first letter of the chain named.

B1: 2291-A04 (antibody, V domains shown)
VH: EVQLVESGGGLVQPGGSLRLSCAASGFNISSYGIHWVRQAPGKGLEWVGFISPYDGYTEYADSVKGRFTISAGTSKNTAYLQMNSLRAEDTAVYYCARDFNDRYFTYVLDYWGQGTLVTVSS
VL: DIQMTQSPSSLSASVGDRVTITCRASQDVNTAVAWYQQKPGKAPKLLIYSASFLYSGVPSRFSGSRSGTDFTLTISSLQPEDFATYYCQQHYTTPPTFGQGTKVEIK
notes: also called Antibody 28
B2: 2291-E06 (antibody, V domains shown)
VH: EVQLVESGGGLVQPGGSLRLSCAASGFNISPYTIHWVRQAPGKGLEWVAHIFPSGGYTDYADSVKGRFTISADTSKNTAYLQMNSLRAEDTAVYYCARDFYDRYATYVLDYWGQGTLVTVSS
VL: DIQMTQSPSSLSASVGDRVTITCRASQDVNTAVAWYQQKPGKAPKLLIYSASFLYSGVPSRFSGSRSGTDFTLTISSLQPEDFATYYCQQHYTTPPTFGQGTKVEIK
notes: also called Antibody 25
B3: 2137-A05 (antibody, V domains shown)
VH: EVQLVESGGGLVQPGGSLRLSCAASGFNINNSYIHWVRQAPGKGLEWVGWIYPYSGYTNYADSVKGRFTISADTSKNTAYLQMNSLRAEDTAVYYCARDYGPWYGTGVLDYWGQGTLVTVSS
VL: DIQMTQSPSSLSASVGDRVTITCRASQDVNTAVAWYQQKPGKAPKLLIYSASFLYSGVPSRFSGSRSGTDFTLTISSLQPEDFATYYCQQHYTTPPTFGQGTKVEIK
notes: also called Antibody 14
B4: 2288-A03 (antibody, V domains shown)
VH: B3 VH with Y33W, S55I, Y57F, N59E, G101D, P102L, W103R, G105L
VL: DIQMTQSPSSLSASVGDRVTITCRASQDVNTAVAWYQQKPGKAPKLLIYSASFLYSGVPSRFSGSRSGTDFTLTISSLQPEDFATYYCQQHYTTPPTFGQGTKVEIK
notes: also called Antibody 15
B5: 2290-A02 (antibody, V domains shown)
VH: EVQLVESGGGLVQPGGSLRLSCAASGFNISTRWIHWVRQAPGKGLEWVGVITPSAGYTHYADSVKGRFTISAGTSKNTAYLQMNSLRAEDTAVYYCARDLGSRYWVGVFDYWGQGTLVTVSS
VL: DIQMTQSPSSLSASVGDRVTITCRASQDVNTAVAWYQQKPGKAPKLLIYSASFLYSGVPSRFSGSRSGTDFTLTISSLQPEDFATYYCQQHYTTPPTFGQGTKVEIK
notes: also called Antibody 22
B6: 2290-C08 (antibody, V domains shown)
VH: EVQLVESGGGLVQPGGSLRLSCAASGFNIQPYWIHWVRQAPGKGLEWVGVITPPSGYTYYADSVKGRFTISADTSKNTAYLQMNSLRAEDTAVYYCARDWGVGYWVGFSDYWGQGTLVTVSS
VL: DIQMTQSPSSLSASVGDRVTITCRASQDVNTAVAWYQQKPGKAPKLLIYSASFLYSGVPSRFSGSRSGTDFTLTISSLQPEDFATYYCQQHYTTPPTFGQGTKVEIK
notes: also called Antibody 21
B7: 2290-D02 (antibody, V domains shown)
VH: B5 VH with T31S, R32Y, V48M, S54A, H59Y, G73D, S102H
VL: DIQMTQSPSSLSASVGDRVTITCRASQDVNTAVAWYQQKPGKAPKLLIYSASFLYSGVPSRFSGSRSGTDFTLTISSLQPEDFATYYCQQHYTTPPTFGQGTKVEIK
notes: also called Antibody 18
B8: 2290-D05 (antibody, V domains shown)
VH: B6 VH with Q30A, P31S, Y32R, P54S, S55A, W100L, V102Y
VL: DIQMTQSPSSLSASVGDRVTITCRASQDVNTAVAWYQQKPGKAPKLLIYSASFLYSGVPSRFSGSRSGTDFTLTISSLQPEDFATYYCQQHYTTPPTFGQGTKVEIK
notes: also called Antibody 20
B9: 2291-D07 (antibody, V domains shown)
VH: B1 VH with S30K, S31D, Y32T, G33Y, F50V, G73D, R98H, N101Y, F105S
VL: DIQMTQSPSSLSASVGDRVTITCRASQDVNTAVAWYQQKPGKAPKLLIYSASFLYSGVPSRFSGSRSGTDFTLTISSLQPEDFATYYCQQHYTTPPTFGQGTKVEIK
notes: also called Antibody 26
B10: 2291-G05 (antibody, V domains shown)
VH: B2 VH with S30A, P31A, A49G, H50W, F52S, S54Y, D59E, Y101H, Y107F
VL: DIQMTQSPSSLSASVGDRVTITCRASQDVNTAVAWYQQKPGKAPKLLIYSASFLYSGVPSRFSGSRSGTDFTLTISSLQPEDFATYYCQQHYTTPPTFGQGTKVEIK
notes: also called Antibody 24
B11: 2291-F10 (antibody, V domains shown)
VH: B1 VH with S30D, S31P, G33T, F50W, G73D, F100Y, N101Y, F105S, Q114R
VL: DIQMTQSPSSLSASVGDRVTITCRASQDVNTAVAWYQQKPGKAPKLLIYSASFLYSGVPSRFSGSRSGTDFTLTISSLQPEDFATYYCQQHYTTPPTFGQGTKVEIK
notes: also called Antibody 27
B12: 2291-A01 (antibody, V domains shown)
VH: B2 VH with S30D, V37A, F52S, S54Y, G55D, A105S
VL: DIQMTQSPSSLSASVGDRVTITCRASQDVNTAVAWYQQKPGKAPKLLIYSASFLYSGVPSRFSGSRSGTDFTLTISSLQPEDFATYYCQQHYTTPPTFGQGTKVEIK
notes: also called Antibody 29
B13: 10F4 (antibody, V domains shown)
VH: AVTLDESGGGLQTPGGALSLVCKASGFTFSGYNMGWVRQAPGKGLEYVAGITYGTGSYTAYGAAVKGRATISRDNGQSTLRLQLNNLRAEDTATYYCARGGGLNSYGCSGANIDAWGHGTEVIVSS
VL: ALTQPSSVSANLGGTVKITCSGGGNYFGSYYYGWYQQKAPGSAPVTVIYNNNNRPSDIPSRFSGSTSGSTSTLTISGVRAEDEAVYFCGGFDSSTDAIFGAGTTLTVL
notes: Chicken HybriFree-derived antibody; also called Antibody 37
B14: 9A5 (antibody, V domains shown)
VH: AVTLDESGGGLQTPGGAVSLVCKASGFSISDYGMGWMRQAPGKGLQYVARIDHDGRYTDYGAVVKGRATISRDNGQSTVRLQLNNLRAEDTGTYYCTRGGGAASIDTWGHGTEVIVSS
VL: B13 VL with L12P, G14E, F27V, S29G, P44L, V47L, D57N, S76T, G90S
notes: Chicken HybriFree-derived antibody; also called Antibody 42
B15: 9E12 (antibody, V domains shown)
VH: AVTLDESGGGLQTPGGGLSLVCKASGFTFSDYGLGWMRQAPGKGLEYVARINSAGSGTYYGSAVDGRATISRDNGQSTVRLQLNNLRAEDTGTYYCTRGGGGASIDGWGHGTEVIVSS
VL: B13 VL with L12P, G14E, N25S, F27Y, A39S, V47L, S71G, S76T, F87Y, G90S
notes: Chicken HybriFree-derived antibody; also called Antibody 43

Tests used:
human BCMA on cells = molecular target: T1, human BCMA on cells (human, UniProt Q02223 1-184); test: FACS, NCI-H929 cells
T1 construct: also called hBCMA; BCMA on NCI-H929, ARP-1, OPM-2, U266B1, MM.1S, RPMI-8226 cells
T1 sequence: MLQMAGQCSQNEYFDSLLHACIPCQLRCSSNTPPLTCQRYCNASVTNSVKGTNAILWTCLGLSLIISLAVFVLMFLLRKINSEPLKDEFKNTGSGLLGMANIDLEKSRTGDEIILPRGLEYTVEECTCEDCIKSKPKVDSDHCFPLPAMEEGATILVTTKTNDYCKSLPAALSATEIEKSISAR
Protocol: (§1) Variants for which sufficient protein was purified in secondary screening were tested in a fluorescence-activated cell sorting (FACS) cell-binding assay. […] 6-12 point dilutions of anti-BCMA variants starting from concentrations of about 100-200 nM antibody were dispensed into each well using a BioMekFX (Beckman Coulter). Cells were then incubated on ice for 1 hr, washed with FACS buffer and incubated for 1 hr on ice with […] FACS buffer containing 2.5 μg/ml Alexa647-conjugated Goat Anti-Human IgG dispensed using BioMekFX (Beckman Coulter). Cells were then washed 2× with FACS buffer and fixed for 10 minutes in […] PBS with 2% paraformaldehyde (PFA) prior to fluorescence detection. Samples were acquired using a Beckton Dickinson LSRII FACS. Geometric Mean Fluorescence Intensity of BCMA antibody binding was analyzed using FlowJo® software (Tree Star, Inc.).

cyno BCMA-Fc = molecular target: T2, cyno BCMA-Fc (cynomolgus monkey, UniProt Q02223 1-54 (human entry)); test: ELISA, coated cynoBCMA-Fc
T2 construct: Custom protein production; also called cynomolgus BCMA-Fc; not shown: Fc part not described

cynomolgus BCMA on cells = cynomolgus BCMA on cells (cynomolgus monkey, UniProt Q02223 1-184 (human entry)); test: FACS, 293T-cynoBCMA cells
Protocol: as §1

human BCMA-Fc [1] = molecular target: T3, human BCMA-Fc (human, UniProt Q02223 1-54); test: ELISA, coated huBCMA-Fc
T3 construct: Bought from R&D Systems; also called huBCMA-Fc; not shown: Fc part not described
T3 sequence: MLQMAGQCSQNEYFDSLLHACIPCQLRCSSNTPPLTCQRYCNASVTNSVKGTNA

human BCMA-Fc [2] = molecular target: T3, human BCMA-Fc; test: SPR Biacore, antibody captured, 25 C
Protocol: Anti-Fab or anti-Fc polyclonal antibodies were immobilized onto a CM5 chip (GE Life Sciences) using amine coupling chemistry (from Amine Coupling Kit, GE Life Sciences). The immobilization steps were carried out at a flow rate of 25 μL/min in 1×HBS-EP+ buffer (GE Life Sciences; 10× Stock diluted before use). The sensor surfaces were activated for 7 min with a mixture of NHS (0.05 M) and EDC (0.2 M). The anti-Fab or anti-Fc antibodies were injected over all 4 flow cells at a concentration of 25 μg/ml in 10 mM sodium acetate, pH 4.5, for 7 min. Ethanolamine (1 M, pH 8.5) was injected for 7 min to block any remaining activated groups.
Off-rate and kinetic binding experiments were performed at 25° C. using 1×HBS-EP+ buffer. […] After capturing ligand (antibody) on the anti-Fab or anti-Fc surface, the analyte (human BCMA-Fc, cyno BCMA-Fc, or human BCMA from R&D Systems, custom protein production, or Sigma Aldrich, respectively) was bound for 180 seconds, followed by a 600 second dissociation phase at a flow rate of 50 μL/min. Between each ligand capture and analyte binding cycle, regeneration was carried out using 2 injections of 10 mM glycine pH 2.0 for 30 seconds at 30 μL/min, followed by a 30 second buffer wash step.
The data was fit with the Biacore T200 Evaluation software, using a 1-1 Langmuir binding model. KD (affinity, nM) was determined as a ratio of the kinetic rate constants calculated from the fits of the association and dissociation phases.

rat BCMA on cells = molecular target: T4, rat BCMA on cells (rat); test: FACS, 293T-ratBCMA cells
T4 construct: whole, on cells

Sequence of cynomolgus BCMA on cells (Q02223 other isoform, or with tags, fused parts or gaps): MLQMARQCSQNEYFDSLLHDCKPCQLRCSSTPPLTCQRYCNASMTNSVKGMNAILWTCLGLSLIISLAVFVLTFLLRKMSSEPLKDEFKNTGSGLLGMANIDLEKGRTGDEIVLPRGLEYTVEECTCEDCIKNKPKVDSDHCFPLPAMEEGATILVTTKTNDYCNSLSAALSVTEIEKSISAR

Row | Binder | Bmax (human BCMA on cells) | Kd (human BCMA on cells) | Bmax (cyno BCMA-Fc) | EC50 (cyno BCMA-Fc) | Bmax (cynomolgus BCMA on cells) | Kd (cynomolgus BCMA on cells) | Bmax (human BCMA-Fc [1]) | EC50 (human BCMA-Fc [1]) | Kd (human BCMA-Fc [2]) | koff (human BCMA-Fc [2]) | kon (human BCMA-Fc [2]) | Bmax (rat BCMA on cells) | Kd (rat BCMA on cells)
1 | B1 | 33900 MFI | 5 nM | 4.23e+06 | 0.2 nM | 63800 MFI | 1.2 nM | 4.6e+06 | 0.23 nM | 0.716 nM | 0.000349 s⁻¹ | 487000 M⁻¹ s⁻¹ | – | –
2 | B2 | 34400 MFI | 5.8 nM | 3.36e+06 | 0.13 nM | 68300 MFI | 1.4 nM | 4.11e+06 | 0.21 nM | 0.763 nM | 0.000357 s⁻¹ | 468000 M⁻¹ s⁻¹ | – | –
3 | B3 | 2690 MFI | 10 nM | 2.2e+06 | 419 nM | 1910 MFI | 18.3 nM | 3.3e+06 | 0.52 nM | 2.36 nM | 0.00332 s⁻¹ | 1.41e+06 M⁻¹ s⁻¹ | – | –
4 | B4 | 16300 MFI | 4.8 nM | 3.02e+06 | 0.57 nM | 46800 MFI | 1.8 nM | 4.24e+06 | 0.56 nM | 0.557 nM | 0.000516 s⁻¹ | 927000 M⁻¹ s⁻¹ | – | –
5 | B5 | 33600 MFI | 4.9 nM | 4.47e+06 | 0.4 nM | 70300 MFI | 2.3 nM | 4.87e+06 | 0.4 nM | 0.567 nM | 0.000131 s⁻¹ | 231000 M⁻¹ s⁻¹ | – | –
6 | B6 | 37800 MFI | 11 nM | 4.14e+06 | 0.2 nM | 71000 MFI | 2.3 nM | 4.33e+06 | 0.3 nM | 0.378 nM | 0.000252 s⁻¹ | 666000 M⁻¹ s⁻¹ | – | –
7 | B7 | 33600 MFI | 19.2 nM | 3.91e+06 | 0.2 nM | 75800 MFI | 3.5 nM | 4.54e+06 | 0.3 nM | 0.949 nM | 0.000277 s⁻¹ | 292000 M⁻¹ s⁻¹ | – | –
8 | B8 | 21800 MFI | 4.6 nM | 3.61e+06 | 0.2 nM | 57600 MFI | 1.7 nM | 3.94e+06 | 0.3 nM | 0.937 nM | 0.000446 s⁻¹ | 476000 M⁻¹ s⁻¹ | – | –
9 | B9 | 28700 MFI | 3.8 nM | 3.94e+06 | 0.03 nM | 67900 MFI | 0.5 nM | 4.08e+06 | 0.03 nM | 0.948 nM | 0.000414 s⁻¹ | 437000 M⁻¹ s⁻¹ | – | –
10 | B10 | 23200 MFI | 1.4 nM | 3.38e+06 | 0.09 nM | 62700 MFI | 1 nM | 3.91e+06 | 0.13 nM | 0.962 nM | 0.000423 s⁻¹ | 440000 M⁻¹ s⁻¹ | – | –
11 | B11 | 33800 MFI | 5.4 nM | 3.43e+06 | 0.06 nM | 66500 MFI | 0.7 nM | 3.72e+06 | 0.1 nM | 0.178 nM | 9.65e-05 s⁻¹ | 541000 M⁻¹ s⁻¹ | – | –
12 | B12 | 32500 MFI | 4.9 nM | 4.77e+06 | 0.33 nM | 67200 MFI | 1 nM | 5e+06 | 0.39 nM | 0.0438 nM | 2.82e-05 s⁻¹ | 644000 M⁻¹ s⁻¹ | – | –
13 | B13 | 18700 MFI | 10.5 nM | – | – | 12800 MFI | 5.94 nM | – | – | – | – | – | 410 MFI | 5.47 nM
14 | B14 | 19700 MFI | 1.01 nM | – | – | 18200 MFI | 0.64 nM | – | – | – | – | – | 2780 MFI | 7.13 nM
15 | B15 | 8140 MFI | 0.52 nM | – | – | 13200 MFI | 0.34 nM | – | – | – | – | – | 4690 MFI | 2.61 nM
